Laboratory results taken from US20230220073A1 (UCL BUSINESS, published 2023).

What was measured:
I(48)Q mutation = target: T1, I(48)Q mutation (human, UniProt Q01973); experiment: flow cytometry, I(48)Q-transduced cells (eGFP), DyLight647
T1 construct: The text speaks of the Ig-like domain; the axis on sheet D00010 reads ROR1 Ig-like+Fz+Kg; also called ROR1 with I(48)Q in the Ig-like domain, on transduced SUP-T1 cells
Procedure: FIG. 5A-FIG. 5H: Epitope mapping of ROR1 clone A MAb. FIG. 5A-FIG. 5B: Reactivity of clone A with ROR1-derived overlapping peptides was analyzed by ELISA. FIG. 5C-FIG. 5H: Amino acid substitution within the epitope binding region was performed in ROR1-transduced cell lines. Also, the previously described clones R12, 4a5 and D10 were also included for comparison. Red circles indicate essential amino acids for antibody binding. One out of three experiments is shown. Experiments were done in triplicates. Error bars represent SD.
(§1) Retroviral vectors were used for transducing SUP-T1 cells and transduction was tested by GFP expression using flow cytometry.

[1] = target: T2, ROR1 Frizzled domain alone, on transduced SUP-T1 cells (human, UniProt Q01973 165-299); experiment: flow cytometry, transduced SUP-T1 cells, anti-human Fc-Dylight647
T2 construct: domain: Fz; also called Fz; ROR1-Fz domain
Procedure: (§2) FIG. 1A-FIG. 1C: Identification of ROR1 binding domain: FIG. 1A: SUP-T1 cells were transduced with retroviral vectors containing either the full extracellular portion of ROR1 or only one or two extracellular domains. Non-transduced SUP-T1 (SUP-T1 NT) cells served as negative control. FIG. 1B: All 12 chimeric antibodies and FIG. 1C all 10 positive clones in scFv format were incubated with SUP-T1 NT and the new stable cell lines at 4° C. for 30 min. Cells were washed and stained with a secondary antibody (anti-human Fc-Dylight647), which was used as negative control. eROR1=extracellular ROR1, Ig-like=Immunoglobulin-like domain, Fz=Frizzled domain, Kg=Kringle domain.

Fz+Kg = target: T3, Fz+Kg (human, UniProt Q01973); experiment: as above
T3 construct: also called ROR1 Frizzled+Kringle domains, on transduced SUP-T1 cells
Procedure: as §2

Kringle (Kg) = target: T4, Kringle (Kg) (human, UniProt Q01973); experiment: as above
T4 construct: also called ROR1 Kringle domain alone, on transduced SUP-T1 cells
Procedure: as §2

[2] = target: T5, ROR1 Ig-like domain with NISSE at residues 47 to 51 replaced by FQDDL, on transduced SUP-T1 cells (human, UniProt Q01973 30-147, limits assumed); experiment: flow cytometry on SUP-T1 cells transduced with mutated ROR1 Ig-like domain
T5 construct: domain: Ig-like; also called five amino acid substitution

[3] = target: T6, Histidine-tagged ROR1 protein (extracellular region) (UniProt Q01973 30-406); experiment: SPR, Biacore X100; antibody captured by anti-human IgG1 on CM5 chip, His-tagged ROR1 extracellular portion injected at 1.5-100 nM
T6 construct: extracellular domain; also called extracellular portion of ROR1 bearing a Histidine tag; not shown: Histidine tag
Procedure: FIG. 3: KD determination by surface plasmon resonance. Sensorgrams obtained using a Biacore X100 instrument are shown. Briefly, ROR1 antibodies were immobilized using a CM5 chip and seven different concentrations of the Histidine-tagged ROR1 protein (extracellular region) were injected. Concentrations ranged from […].
We undertook surface plasmon resonance evaluation using a Biacore X100 instrument. ROR1 chimeric antibodies were immobilised using an anti-human IgG1 antibody capture kit and a CM5 sensor chip. Seven different concentrations, ranging from 1.5-100 nM, of the extracellular portion of ROR1 bearing a Histidine tag were then injected.

Q(261)H mutation = Q(261)H mutation (human, UniProt Q01973); experiment: flow cytometry, Q(261)H-transduced SUP-T1 cells (eGFP), DyLight647
Procedure: FIG. 6A-FIG. 6D: Epitope mapping of ROR1 clone F MAb. FIG. 6A-FIG. 6B: Reactivity of clone F with ROR1-derived overlapping peptides was analyzed by ELISA. Since no linear epitope was identified, FIG. 6C-FIG. 6D: amino acid substitution of non-conserved regions within the Fz domain was performed in ROR1-Fz transduced cell lines. Circles indicate essential amino acids for antibody binding. One out of three experiments is shown. Experiments were done in triplicates. Error bars represent SD.
as §1

[4] = target: T7, ROR1 Fz domain with Q(261)H and I(254)V, on transduced SUP-T1 cells (human, UniProt Q01973 165-299); experiment: flow cytometry on SUP-T1 cells transduced with mutated ROR1 Fz domain
T7 construct: domain: Fz

[5] = target: T8, ROR1 Ig-like domain alone, on transduced SUP-T1 cells (human, UniProt Q01973 30-147, limits assumed); experiment: flow cytometry, transduced SUP-T1 cells, anti-human Fc-Dylight647
T8 construct: domain: Ig-like; also called immunoglobulin domain
Procedure: as §2

[6] = target: T9, ROR1, full extracellular region, on transduced SUP-T1 cells (UniProt Q01973 30-406); experiment: flow cytometry, ROR1-transduced cells, single staining; Q1 = ahFc+ only; amFc+ahFc alone Q1 0.060
T9 construct: extracellular domain; also called eROR1; extracellular ROR1
Text: FIG. 7A-FIG. 7C: Competition assay by flow cytometry. Clone A (SA1) in murine IgG2a, k (mSA1) along with other ROR1 MAbs in human IgG1, k-including previously published 4a5, D10 and R12 clones—were used for staining ROR1-transduced cells. MAb staining was done as FIG. 7A-FIG. 7B: single agents or FIG. 7C: in combination with clone A (mSA1). Anti-human IgG (450) and anti-mouse IgG (DyLight649) were used as secondary antibodies. Combined staining using clones F and mSA1 acted as negative control for overlapping epitopes.
In FIG. 7C, three different columns are presented. Dot plots on the first column correspond to ROR1 binding assessed when SUP-T1 ROR1 cells were stained with clone A (SA1) (mIgG) in the first instance. After a washing step, cells were stained with a competitor antibody (hIgG), followed by another washing step. Both antibodies were then detected by a third staining step using the appropriate secondary antibodies. In the second column, a similar approach was taken when staining these cells, except that this time it was the antibody in hIgG1, k format the one used for the first staining step, followed by clone A (SA1) staining. On the third column, both antibodies were used at the same time.

CLL2 ROR1high = target: T10, CLL2 ROR1high (human, UniProt Q01973); experiment: flow cytometry, cells stained at 4 C, ahFc-DyLight647
T10 construct: on the cell surface; also called ROR1 on primary CLL cells with high ROR1
Procedure: FIG. 9A-FIG. 9C: Internalisation of ROR1 MAbs on SKW 6.4 GFP and CLL cells by flow cytometry. Cells were stained at 4° C. and either left on ice or incubated at 37° C. for 15 min, 1 h and 2 h. Cells were then analysed using an anti-human IgG as secondary antibody. FIG. 9A-FIG. 9B: Histograms and FIG. 9C: Trends over time showing the MFI reduction over time are presented. The % of MFI reduction was calculated as described in the Materials and Methods chapter. Phenylarsine oxide (PAO), an endocytosis inhibitor, acted as negative control (PAO-120).
To distinguish between dissociation and internalisation, SKW 6.4 cells were incubated on ice in the presence of our selected antibodies for 30 min. Cells were then washed with ice-cold PBS and either left on ice or incubated at 37° C. for 15 min, 1 h or 2 h. For the 2 h time point, a duplicate sample was incubated with PAO (10 μM). Immediately after incubation, all samples were washed with ice-cold PBS and stained with an anti-human Fc-Dylight 647 for 30 min. Cells were analysed by flow cytometry and MFI reduction was calculated.
Samples were processed as mentioned above and analysed by flow cytometry. […] This was even clearer on CLL cells, where virtually no internalisation of clone V was detected.

SKW 6.4 GFP = target: T11, SKW 6.4 GFP (human, UniProt Q01973); experiment: flow cytometry, SKW 6.4 GFP cells stained at 4 C, anti-human Fc-Dylight 647
T11 construct: on the cell surface; also called ROR1 endogenously expressed on SKW 6.4 cells
Procedure: FIG. 8A-FIG. 8C: Internalisation of ROR1 antibodies on SKW 6.4 GFP cells by flow cytometry. SKW 6.4 GFP cells were stained at 4° C. and either kept on ice (blue line) or incubated at 37° C. (yellow line) for 1 h. […] Clones A, F and Mu (purple circle) were selected for further investigation. Clones R12 and 4a5 (in black) served as negative and positive control, respectively. Anti-human Fc-Dylight 647 was used as secondary antibody and as staining control (red line). MFI=Median Fluorescence Intensity.
After 30 min, cells were washed with ice-cold PBS, and either left on ice or incubated at 37° C. for 1 h. Subsequent staining with an anti-human Fc-Dylight 647 was used to detect any primary antibody that had remained on the cell surface. Previously reported clones R12 and 4a5 were also included in this assay as negative and positive controls, respectively (FIG. 8).

[7] = target: T9, ROR1, full extracellular region, on …; experiment: flow cytometry, transduced SUP-T1 cells, anti-human Fc-Dylight647
Procedure: as §2

[8] = target: T12, ROR1 Ig-like+Frizzled (Fz) domains, on transduced SUP-T1 cells (UniProt Q01973 30-299, limits assumed); experiment: as above
T12 construct: domain: Ig-like+Frizzled (Fz); also called Ig-Fz protein
Procedure: as §2

T2 sequence (Q01973 165-299): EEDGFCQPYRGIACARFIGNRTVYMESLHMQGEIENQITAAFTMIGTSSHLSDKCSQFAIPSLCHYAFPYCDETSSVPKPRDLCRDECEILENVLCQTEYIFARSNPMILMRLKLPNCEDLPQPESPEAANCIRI
T9 sequence (Q01973 30-406): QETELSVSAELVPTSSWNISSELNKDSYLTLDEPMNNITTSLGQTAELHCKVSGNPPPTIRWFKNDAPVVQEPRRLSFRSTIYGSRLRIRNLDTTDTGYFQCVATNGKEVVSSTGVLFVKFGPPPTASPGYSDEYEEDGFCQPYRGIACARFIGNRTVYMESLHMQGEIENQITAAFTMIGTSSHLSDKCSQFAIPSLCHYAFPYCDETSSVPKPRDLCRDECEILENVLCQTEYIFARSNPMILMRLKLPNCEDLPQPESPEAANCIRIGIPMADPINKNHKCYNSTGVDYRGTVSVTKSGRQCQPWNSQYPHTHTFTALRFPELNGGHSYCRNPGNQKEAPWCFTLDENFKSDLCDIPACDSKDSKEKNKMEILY
T6 sequence (Q01973 30-406): as above
T8 sequence (Q01973 30-147 limits assumed): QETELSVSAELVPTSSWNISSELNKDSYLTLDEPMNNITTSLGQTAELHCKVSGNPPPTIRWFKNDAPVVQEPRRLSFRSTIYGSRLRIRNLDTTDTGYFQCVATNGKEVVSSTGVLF
T3 sequence (Q01973 165-391 limits assumed): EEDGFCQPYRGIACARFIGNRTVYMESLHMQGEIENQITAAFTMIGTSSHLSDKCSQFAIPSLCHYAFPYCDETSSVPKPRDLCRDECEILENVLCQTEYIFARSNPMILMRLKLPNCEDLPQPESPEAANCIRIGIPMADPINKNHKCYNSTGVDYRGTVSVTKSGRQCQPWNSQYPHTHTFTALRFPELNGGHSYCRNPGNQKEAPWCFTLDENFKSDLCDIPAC
T4 sequence (Q01973 312-391 limits assumed): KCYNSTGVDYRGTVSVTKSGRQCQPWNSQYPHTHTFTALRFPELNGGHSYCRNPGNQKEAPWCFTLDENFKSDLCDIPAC
T12 sequence (Q01973 30-299 limits assumed): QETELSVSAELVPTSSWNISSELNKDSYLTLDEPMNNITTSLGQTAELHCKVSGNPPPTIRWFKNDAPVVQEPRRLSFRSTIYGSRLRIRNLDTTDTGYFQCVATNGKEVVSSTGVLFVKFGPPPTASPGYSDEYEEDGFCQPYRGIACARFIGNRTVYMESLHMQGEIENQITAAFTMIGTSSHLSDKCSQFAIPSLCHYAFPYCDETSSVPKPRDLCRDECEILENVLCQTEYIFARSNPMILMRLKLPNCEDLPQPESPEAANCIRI
T1 sequence (Q01973 other isoform, or with tags, fused parts or gaps limits assumed): as the sequence (Q01973 30-406) above, with I19Q counted along it
Q(261)H mutation, sequence (Q01973 165-299 Q261H limits assumed): as the sequence (Q01973 165-299) above, with Q97H counted along it
T11 sequence (Q01973 30-937 limits assumed): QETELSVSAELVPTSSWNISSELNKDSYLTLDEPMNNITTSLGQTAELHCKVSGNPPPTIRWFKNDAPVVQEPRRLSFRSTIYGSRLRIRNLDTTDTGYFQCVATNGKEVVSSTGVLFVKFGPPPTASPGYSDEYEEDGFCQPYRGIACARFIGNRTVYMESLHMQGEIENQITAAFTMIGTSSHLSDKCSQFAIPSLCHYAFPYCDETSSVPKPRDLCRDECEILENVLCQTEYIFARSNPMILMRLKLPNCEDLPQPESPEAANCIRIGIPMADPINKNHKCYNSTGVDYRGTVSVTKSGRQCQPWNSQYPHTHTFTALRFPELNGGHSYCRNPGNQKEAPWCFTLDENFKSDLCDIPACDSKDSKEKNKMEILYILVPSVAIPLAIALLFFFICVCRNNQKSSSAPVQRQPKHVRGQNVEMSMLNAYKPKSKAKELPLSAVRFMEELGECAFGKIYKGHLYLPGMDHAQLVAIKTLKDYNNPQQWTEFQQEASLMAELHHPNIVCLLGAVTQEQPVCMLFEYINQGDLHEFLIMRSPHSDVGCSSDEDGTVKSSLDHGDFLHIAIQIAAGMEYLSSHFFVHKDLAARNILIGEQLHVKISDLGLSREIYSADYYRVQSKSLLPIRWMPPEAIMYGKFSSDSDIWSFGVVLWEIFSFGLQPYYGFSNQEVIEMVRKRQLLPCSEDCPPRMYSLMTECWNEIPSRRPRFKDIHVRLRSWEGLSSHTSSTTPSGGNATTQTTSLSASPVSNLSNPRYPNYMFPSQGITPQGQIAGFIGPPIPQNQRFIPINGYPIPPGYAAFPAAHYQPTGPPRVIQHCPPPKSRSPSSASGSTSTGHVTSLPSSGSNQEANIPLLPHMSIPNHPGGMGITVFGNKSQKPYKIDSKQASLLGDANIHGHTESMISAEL
T10 sequence (Q01973 30-937 limits assumed): as above
T7 sequence (Q01973 165-299 I254V/Q261H): as the sequence (Q01973 165-299) above, with I90V, Q97H counted along it
T5 sequence (Q01973 other isoform, or with tags, fused parts or gaps limits assumed): as the sequence (Q01973 30-147 limits assumed) above, with N18F, I19Q, S20D, S21D, E22L counted along it

Binder | binding result (I(48)Q mutation) | binding result [1] | binding result (Fz+Kg) | binding result (Kringle (Kg)) | binding result [2] | Kd [3] [nM] | koff [3] [s⁻¹] | kon [3] [M⁻¹ s⁻¹] | binding result (Q(261)H mutation) | binding result [4] | binding result [5] | Q1 quadrant figure [6] | binding result (CLL2 ROR1high) | binding result (SKW 6.4 GFP) | binding result [7] | binding result [8]
Clone A chimeric ROR1 antibody (antibody, V domains shown, also called SA1) VH: QVQLQQSGTELVKPASSVRISCKASGYTLTTNYMHWIRQQPGNGLEWIGWIYPGNGNTKFNHKFDGRTTLTADKSSSIVYMQLSSLTSEDSAVYFCARSDFDYWGQGVMVTVSS VL: DIQMTQSPSSMSASLGDRVTFTCQASQDIGNNLIWFQQKPGKSPRPLMYFATSLANGVPSRFSGSRSGSDYSLTISSLESEDLADYHCLQYREYPLTFGSGTKLDLK | no binding | no binding | no binding | no binding | no binding | 1.81 | 0.00104 | 577000 | – | – | – | – | – | – | – | –
Clone F chimeric ROR1 antibody (antibody, V domains shown) VH: EVQLVESGGGLVQPGRSLKLSCAASGFIFSEHNMAWVRQAPKKGLEWVATISDDGRNTYYRDSMRGRFTISRENARSTLYLQLDSLRSEDTATYYCASHRYNLFDSWGQGVMVTVSS VL: DIQMTQSPSFLSASVGDRVTINCKASQNIDRYLNWYQQKLGEAPKRLLYNTNKLQTGIPSRFSGSGSATDFTLTISSLQPEDFATYFCLQYNSLPLTFGSGTKLEIK | – | – | – | no binding | – | 5.46 | 0.000836 | 153000 | no binding | no binding | no binding | 85 | – | – | – | –
Clone V chimeric ROR1 antibody (antibody, V domains shown) VH: EVQLVESGGGLVQPGRSLKLSCAASGFSFSNYGMHWIRQAPTKGLEWVASISPTGGNTYYRDSVKGRFTISRDNTKSTLYLQMDSLRSEDTATYYCATDDLYYSGPFAYWGQGTLVTVSS VL: DIKMTQSPSFLSASVGDRVTINCKASQNITRFLNWYQQELGEAPTLLIYNTNNLQTGIPSRFSGSGSGTDFTLTISSLQPEDVATYFCLQHGSRPRTFGGGTKLELK | – | no binding | no binding | no binding | – | – | – | – | – | – | no binding | – | binds | binds | binds | binds
Clone Mu chimeric ROR1 antibody (antibody, V domains shown) VH: QVQLQQSGAELVKPGSSVRISCKASGYTITSYDMHWIKQQPGNGLEGIGWIHPGNGKIKYNQKFNGKATLTVDKSSSTAYMQLSSLTSEDSAVYFCARGTTRVFPWFAYWGQGTLVTVSS VL: QFTLTQPKSVSGSLRSTITIPCERSSGDIGDNYVSWYQQHLGRPPINVIYADDQRPSEVSDRFSGSIDSSSNSASLTITNLQMDDEADYFCQSFDSNFDIPVFGGGTKLTVL | – | no binding | no binding | no binding | – | – | – | – | – | – | binds | – | – | – | binds | binds
